Laboratory results from patent US11781164B2, “Demethylation of reticuline and derivatives thereof with fungal cytochrome P450” (priority 2017, dated 2023).

Legend:
[1] = tested on: Thamnostylum piriforme ATCC 8992; test: Fungal bioconversion of thebaine to northebaine by Thamnostylum piriforme cultures; assay type: cell-based
Description: (§1) Cunninghamella echinulata ATCC 9244 was propagated on potato dextrose agar at room temperature. Mature cultures on plates (7-10 days) were used for the preparation of concentrated spore suspensions. Spores were harvested by flooding the lawn culture with a sterile solution containing 0.9% sodium chloride and 0.01% Tween 80 (10 ml/plate), scratching them from the hyphae with the aid of a sterile loop and filtering the suspension through sterile cotton to remove hyphal fragments. Thamnostylum piriforme ATCC 8992 was propagated on malt extract agar (CM0059) at room temperature and spore suspensions were prepared as indicated above. […]
(§2) Media was inoculated with 0.25 ml of freshly-prepared spore suspensions. […] Eleven days after thebaine addition, supernatants were collected and analyzed by LC-MS. […] Thebaine and northebaine were monitored in the supernatants, reaching a conversion level of 25% on day 12 after substrate addition (FIG. 2).

[2] = tested on: Cunninghamella echinulata ATCC 9244; test: Fungal bioconversion of thebaine to northebaine by Cunninghamella echinulata cultures; assay type: cell-based; details: 0.5 mg/ml thebaine added after 48 h of growth; eleven days after thebaine addition; supernatant, LC-MS
Description: as §1, §2

codeine = test: In vitro N-demethylation of codeine by mammalian cytochrome P450s in crude yeast cell lysates; details: crude cell extract with human CPR and cytochrome b5; 0.2 mM substrate, pH 7, 30° C., approximately 20 hours; compared to negative control strain without cytochrome P450s
thebaine [3] = test: In vitro N-demethylation of thebaine by mammalian cytochrome P450s in crude yeast cell lysates; details: crude cell extract with human CPR and cytochrome b5; 0.2 mM substrate, pH 7, 30° C., approximately 20 hours; compared to negative control strain without P450s
oripavine [4] = test: In vitro N-demethylation of oripavine by mammalian cytochrome P450s in crude yeast cell lysates; details: crude cell extract with human CPR and cytochrome b5; 0.2 mM substrate, pH 7, 30° C., approximately 20 hours; compared to negative control strain without cytochrome P450s
salutaridinol = test: In vitro N-demethylation of salutaridinol by mammalian cytochrome P450s in crude yeast cell lysates; details: crude cell extract with human CPR and cytochrome b5; 0.2 mM substrate, pH 7, 30° C., approximately 20 hours; compared to negative control strain without cytochrome P450s
salutaridine = test: In vitro N-demethylation of salutaridine by mammalian cytochrome P450s in crude yeast cell lysates; details: crude cell extract with human CPR and cytochrome b5; 0.2 mM substrate, pH 7, 30° C., approximately 20 hours; compared to negative control strain without cytochrome P450s
oripavine [5] = test: Bioconversion of oripavine (N-demethylation to nororipavine) by S. cerevisiae expressing cytochrome P450s and CPRs, LC-MS; details: 0.5 mM oripavine, pH 7, 72 h; co-expressed with native or codon-optimized T. piriforme CPRs or Cel_CPR
thebaine [6] = test: In planta conversion of thebaine by transient expression of demethylases and CPRs in Nicotiana benthamiana leaves; details: co-expressed with CPR_DN10898_c0_g1_i1_co or Cel_CPR_co; leaves re-infiltrated with 0.5 mM thebaine after 4 days, measured 1 day after
thebaine [7] = test: Bioconversion of thebaine (N-demethylation to northebaine) by S. cerevisiae expressing cytochrome P450s and CPRs, LC-MS; details: 0.5 mM thebaine, pH 7, 72 h; co-expressed with native or codon-optimized T. piriforme CPRs or Cel_CPR
thebaine [8] = test: Conversion of thebaine by demethylases heterologously expressed in Aspergillus nidulans; details: 0.5 mM thebaine, Minimal Medium pH 7, 84 hours; supernatant, LC-MS

COC1=CC=C2[C@H]3Cc4ccc(OC)c5c4[C@@]2(CCN3C)[C@H]1O5 [Thebaine, thebaine]
conversion of thebaine to northebaine ([1]; 0.5 mg/ml thebaine added after 48 h of growth, eleven days after thebaine addition, supernatant, LC-MS): 16%
conversion level of thebaine to northebaine ([1]; new T. piriforme cultures, day 12 after substrate addition): 25%
conversion of thebaine to northebaine [2]: 6%

B1: Hs_CYP2C8: Cytochrome P450 2C8 (P10632), Homo sapiens (protein, UniProt P10632 1-490, looked up)
Cytochrome P450 2C8: MEPFVVLVLCLSFMLLFSLWRQSCRRRKLPPGPTPLPIIGNMLQIDVKDICKSFTNFSKVYGPVFTVYFGMNPIVVFHGYEAVKEALIDNGEEFSGRGNSPISQRITKGLGIISSNGKRWKEIRRFSLTTLRNFGMGKRSIEDRVQEEAHCLVEELRKTKASPCDPTFILGCAPCNVICSVVFQKRFDYKDQNFLTLMKRFNENFRILNSPWIQVCNNFPLLIDCFPGTHNKVLKNVALTRSYIREKVKEHQASLDVNNPRDFIDCFLIKMEQEKDNQKSEFNIENLVGTVADLFVAGTETTSTTLRYGLLLLLKHPEVTAKVQEEIDHVIGRHRSPCMQDRSHMPYTDAVVHEIQRYSDLVPTGVPHAVTTDTKFRNYLIPKGTTIMALLTSVLHDDKEFPNPNIFDPGHFLDKNGNFKKSDYFMPFSAGKRICAGEGLARMELFLFLTTILQNFNLKSVDDLKNLNTTAVTKGIVSLPPSYQICFIPV
in vitro N-demethylation activity on codeine (codeine): detected
in vitro N-demethylation activity on Thebaine (thebaine [3]): detected
in vitro N-demethylation activity on oripavine (oripavine [4]): detected
in vitro N-demethylation activity on salutaridinol (salutaridinol): detected
in vitro N-demethylation activity on salutaridine (salutaridine): detected

B2: Mc_S2JT25_co: codon-optimized cytochrome P450 S2JT25 from Mucor circinelloides (protein)
chain: MTLIASYNQTLLERVISVVRKNKTSYIGMAILCVVLQQVYASFTVPPKYLRRYPTVSFFEMMKSFYRKESVLNRNKRLVTPLTNAGHGFYVCRIPLDWTIYVTDPIAAKTLLLKTDNFPKSHAIFGALGESSPAVKFMGSENVAVSNGEMWKKQRKIMNPAFHRSQPVKLFGGVMPDLFALIDQDPEHVFVAPRMKSFALDALGLSAFGFDFQSLKGDPEGWTSKYNTVISTLFNPFINLFAKYDFLIKYISPERRRVIKATDEFNVMLSNLADKRRQEILDGEKKDMAENEKDLLTLMIEADIREGVETTTTELRHNMAIFFLAGHDTTANTLALCLYQLAKHKHVQKKARQEVLDILGDDPCDVTPTLEDLKKLNYVNMVIKENLRRNSPVDNLMARDTHQDIDLNGTFIPKGSKVTVNVASIHLNPKIWHDPESFIPERFEPGGEYDGHDGFTWIPFSNGSRQCLGLNFSLTEQRVVLCMLLKRYEIEIPKDSIHYNEIVFDKPFTFAPQSLELSFKKRY
modifications: codon-optimized; Mucor circinelloides
amount of nororipavine compared to Lr_P450_co (oripavine [5]): resulted in the highest amount of nororipavine
northebaine levels in N. benthamiana leaves vs negative P19 control (thebaine [6]): clear increase in northebaine
northebaine amount compared to Lr_P450_co (thebaine [7]): yielded the highest northebaine amount
northebaine production in Aspergillus nidulans vs vector control (thebaine [8]): production of northebaine was achieved
